Results as given in the RNAGym collection of RNA variant scans (doi:10.1073/pnas.2313332121).
Variants at the floor of the assay were thinned out.

B1: TPR 5TU (parent)
chain: GGAUCUUCUCGAUCUAACAAAAAAGACAAAUCUGCCACAAAGCUUGAGAGCAUCUUCGGAUGCAGAGGCGGCAGCCUUCGGUGGCGCGAUAGCGCCAACGUUCUCAACUAUGACACGCAAAACGCGUGCUCCGUUGAAUGGAGUUUAUCAUG

Variants of: B1
Assay: polymerase ribozyme fitness, log enrichment relative to wild type (log ratio); higher = more active; in vitro selection for triplet polymerase activity
Method in brief: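 Both subunits of a heterodimeric triplet polymerase ribozyme were given their own mutant library, built by PCR and transcribed. Each library was annealed with a biotinylated primer, the partner subunit and triplets, incubated frozen at −7 °C, and its extended constructs gel-excised, captured on streptavidin beads and amplified by RT-PCR, all in one round done in triplicate. Fitness is the logarithm of genotype enrichment relative to wild-type enrichment, with replicates averaged by inverse-variance weighting. That logarithm is base 2, and Illumina-sequenced genotypes needed ≥10 input reads and ≥1 read per output.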

GGAUCUUCUCGAUCUAACAAAAAAGACAAAUGUGUCACAAAGCUUGAGAGCAUCUUCGGAUGCAGAGGCGGGAGCCUUCGGUGGCGCGAUAGCGCCAACGUUCUCCACUAUGACACGCAAAACGCGUGCUCCGUUGAAUGGAGUUUAUCAUG [C32G C35U C72G A106C] and GGAUCUUCUCGAUCUAACAAAAAAGACAAAUCUGCCACAAAGCUUGAGAGCAUCUUCGGAUGCAGAGGCGGCAGCCUUCGGUGGCGCGAAAGCGUCAACGUUCUCAACUAUGACACGCAAAACGCGUGCUCCGUUGAAUGGAGUUUAUCAUG [U90A C95U] cannot be ordered by “polymerase ribozyme fitness (log ratio)” value: at most -4.2 for the first, at most -4.2 for the second.

GGAUCUUCUCGAUCUAACAAAAAAGACAAAUCUUCCACAAAACUUGAGAGCAUCUUCGGAUGCAGAGGCGGCAGCCUUCGGCGGCGCGAUAGCGCCAACGUUCUCAACUAUGACACGCAAAACGCGUGCUCCGUCGAAUGGAGUUUAUCAUG [G34U G42A U82C U135C] and GGAUCUUAUCGAUCUAACAAAAAAGACAAAUCUGCCACAAAGCUUGAGAGCAUCUUCGGAUGCAGAGGCGGCAGCCUUCGGUUGCGCGAGAGCGCCAACGUUCUCAACUAUGACACGAAAAACGCGUGCUCCGUUGAAUGGAGUUUAUCAUG [C8A G83U U90G C118A] cannot be ordered by “polymerase ribozyme fitness (log ratio)” value: at most -4.2 for the first, at most -4.2 for the second.

Compared with GGAUCUUCUCGAUCUAACAAAAAAGACAACUCUGCCACAAAGGUAGAGAGCAUCUUCGGAUGCAGAGGCGGCAGCCUUCGGUGGCGAGAUAGCGCCAACGUUAUCAACUAUGACACGCAAAACGCGUGCUCCGUUGAAUGGAGUUUAUCAUG [A30C C43G U45A C87A C103A], GGAUCUUCUCGAUCUAACAAAAAAGACAAAUCUGCCACAAAGCUUGCGAGCAUCUUCGGAUGCAGAGGCGGCAGCCUUCGGUGGUGCGAUAGCGCCAACGUUCUCAACUAUGACACGUAAAACGCGUGCACCGUUGAAUGGAGUUUAUCAUG [A47C C85U C118U U130A] is higher in “polymerase ribozyme fitness (log ratio)” value: at most -4.2 for the first, -3.62 for the second.

First: GGAUCUUCUCGAUCUAACAAAAAAGACAAAUCUGCCACAAAGCUUGAGAGCAUCUUCGCAUGCAGAGGCGGCAGCCUUCGGUGGCGCGAUAGCGCCAACGUUUUCAACUAUGACACGCAAAACGCGUGCUCCGUUGAAUGGAGUUUAUCAUG [G59C C103U]
Second: GGAUCUUCUCGAUCUAACAAAAAAGACAAAUCUGCCACAAAGCUUGAGAGCAUCUUCGGAUGCAGAGGCGGCAGCCUUCGGUGGCGCGAUAGCGUCAACGUGCUUAACUAUGACACGCAAAACGCGUGCUCCGUUGAAUGGAGUUUAUCAUG [C95U U102G C105U]
The “polymerase ribozyme fitness (log ratio)” value of the first is higher: 0.229 for the first, -2.98 for the second.

GGAUUUUCUCGAUCUCUCAAAAAAGAUAAAUCUGCCACAAAGCUUGAGCGCAUCGUCGGAUGCAGAGGCGGCAGCCUUCGGUGGCGCGAUAGCGCCAACGUUCUCAACUAUGACACGCAAAACGCGUGCUCCGUUGAAUGGAGUUUAUCAUG [C5U A16C A17U C27U A49C U55G] and GGAUCUUCUCGAUCUAACAAAAAAGACAAAUCUGCCCCAAAGCUUGAGAGCAUCUUCGGAUGCAGAGGCGGCAGCCUUCGGUGGCUUGAUAGCGCCAACGUUCUCAAUUAUGGCACACAAAACGCGUGCUCCGUUGAAUGGAGUUUAUCAUG [A37C G86U C87U C108U A113G G117A] cannot be ordered by “polymerase ribozyme fitness (log ratio)” value: at most -4.2 for the first, at most -4.2 for the second.

First: GGAUCUUCUCGAUCUAACAAAAAAGACAAAUCUGCCACAAAGCUUGAGAGCAUCUUCGGAUGCAGAGGCGGCAGCCUUCGGUGGCGCGAUAGCGCAAUCGUUGUCAACAAUGACACGCAAUACGCGUGCUCCGUUGAAUGGAGUUUAUCAUG [C96A A98U C103G U109A A121U]
Second: GGAUCUUCUCGAUCUAACUAAAAAGACAAAUCUGCCACAAAGCUUGAGAGCAUCUUGGGAUGCAGAGGCGGCAGCCUUCGGUGGCGCGAUAGCGCGAACGUUCUCAACUAUGACAGGCAAAACGCGUGCUCCGUUGAAUGGAGUUUAUCAUG [A19U C57G C96G C116G]
The “polymerase ribozyme fitness (log ratio)” value of the first is lower: at most -4.2 for the first, -0.687 for the second.

Going from GGAUCUUCUCGAUCUAACAAAAAAGACAAAUCUGCCACAAAGCUUGAGAGCAUCUUCGGAUGCAGAGGCGGCAGCCUUCGGUGGCGCGAUAGCGCCAACGUUCUCAACUAUGAUACGCAAAACGCGUGCUCCGUUGAAUGGAGUUUAUCACG [C114U U151C] to GGAUCUUCUCGAUUUAACAAAAAAGACAAAUCUGUCACAAAGCUUGAGAGCAUCUUCGGAUGCAGAGGCGGCAGCCUUCGGUGUCGCGAUAGCGCCAACGUUCUCAACUAUGACACGCAAAACGCGUGCUUCGUUGAAUGGAGUUUAUCAUG [C14U C35U G84U C131U], the “polymerase ribozyme fitness (log ratio)” value rises from at most -4.2 to -3.79.

First: GGAUCUUCUCGAUCUAACAAAAAAGACAAAUCUGCCACAAAGCUUGAGAGCAUCUUCGGAUGCAGAGGCGGCAGCCUUCGGUGGCGCGAUAGUGCCAACGUUCUCAACUAUGACACGCAAAACGCGUGCUCCGUUGAAUGGAGUUUAUCAUU [C93U G152U]
Second: GGAUCUUCUCGAUCUAACAAAAAAGACAAAUCUGGCACAAAGCUUGAGACCAUCUACGGAUGCUGAGGCGGCAGCCUUCGGUGGCGCGAUAGCGCCAACGUUCUCAACUAUGACACGCAAAACGCGUGCUCCCUUGAAUGGAGUUUAGCAUG [C35G G50C U56A A64U G133C U148G]
The “polymerase ribozyme fitness (log ratio)” value of the first is higher: -3.49 for the first, at most -4.2 for the second.

Going from GGAUCUUCUCGAUAUAACAAAAAAGACAAAUCUGCCGCAAAGCUUGAGAGCAUCUUCGGAUGCAGAGGCGGCAGCCUUCGGUGGCGCGAUAGUGCCAACGUUCUCAACUAUGACACGCAAAACGCGUGCUCCGUUGAAUGGAGUUUAUCAUG [C14A A37G C93U] to GGAUCUUCUCGAUCUAACAAAAAAGACAAAUCUGCCACAAAGCCUGAGAGCAUCUUCGGAUGCAGAGGCGGCAGCCUUCGGUGGCGCAAUAGCGCCAACGUUCUCAACUAUGACACGCAAAACGCGUGCUCCGUAGAAGGGAGUUUAUCAUG [U44C G88A U135A U139G], the “polymerase ribozyme fitness (log ratio)” value falls from -4.13 to at most -4.2.

With GGAUCUUCUCGAUCUAACAAAAUAGACAAAUCUGCCACAAACCUUGAGAGCAUCUUCGGAUGCAGAGGCGGCAGCCUUCGGUGGCGCCAUAGCGCCAACGUUCUGAACUAUGACAGGCAAAACGCGUGCUCCGUUGAAUGGAGUUUAUCAUG [A23U G42C G88C C105G C116G] the “polymerase ribozyme fitness (log ratio)” value was at most -4.2.
